Test results from article PMC6611741 (2019).

Target: Bovine serum albumin (Bos taurus (Bovine), UniProt P02769)
Assay: EGOTFT (SiMoT), BSA-functionalized gate

Sequence of Bovine serum albumin (P02769 25-607): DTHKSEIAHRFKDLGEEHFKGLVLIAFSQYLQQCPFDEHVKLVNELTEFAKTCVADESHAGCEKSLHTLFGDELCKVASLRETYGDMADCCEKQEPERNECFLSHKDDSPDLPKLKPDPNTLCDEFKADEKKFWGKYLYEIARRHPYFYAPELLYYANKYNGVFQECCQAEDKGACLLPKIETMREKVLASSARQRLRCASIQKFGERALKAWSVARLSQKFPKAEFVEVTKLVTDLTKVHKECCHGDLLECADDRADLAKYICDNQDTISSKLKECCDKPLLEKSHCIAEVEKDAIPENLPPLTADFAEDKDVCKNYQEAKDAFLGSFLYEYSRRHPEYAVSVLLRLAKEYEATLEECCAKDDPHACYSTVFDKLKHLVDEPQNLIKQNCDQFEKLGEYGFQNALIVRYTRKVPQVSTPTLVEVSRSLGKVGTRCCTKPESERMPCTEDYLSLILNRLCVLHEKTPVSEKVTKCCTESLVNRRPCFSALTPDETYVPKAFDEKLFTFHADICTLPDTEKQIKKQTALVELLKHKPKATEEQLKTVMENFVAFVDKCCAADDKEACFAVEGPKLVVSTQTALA

binding result: no binding
B1: Human C-reactive protein (protein)
chain: QTDMSRKAFVFPKESDTSYVSLKAPLTKPLKAFTVCLHFYTELSSTRGYSIFSYATKRQDNEILIFWSKDIGYSFTVGGSEILFEVPEVTVAPVHICTSWESASGIVEFWVDGKPRVRKSLKKGYTVGAEASIILGQEQDSFGGNFEGSQSLVGDIGNVNMWDFVLSPDEINTIYLGGPFSPNVLNWRALKYEVQGEVFTKPQLWP
